Article PMC3472097 (Structure (London, England : 1993), 2012)

biological target: protein phosphatase 1 alpha (PP1α), residues 7-330, recombinant (UniProt P62136 7-330); assay: ITC
Sequence (P62136 7-330): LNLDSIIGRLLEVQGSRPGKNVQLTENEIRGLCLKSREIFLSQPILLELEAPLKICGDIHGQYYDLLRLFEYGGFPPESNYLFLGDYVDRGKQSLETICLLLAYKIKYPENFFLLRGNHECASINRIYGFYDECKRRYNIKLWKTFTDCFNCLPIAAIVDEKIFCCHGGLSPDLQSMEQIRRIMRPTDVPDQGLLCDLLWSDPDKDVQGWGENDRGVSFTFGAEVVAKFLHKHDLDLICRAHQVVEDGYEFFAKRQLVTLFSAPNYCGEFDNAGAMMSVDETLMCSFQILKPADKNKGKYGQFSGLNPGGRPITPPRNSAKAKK

| Binder | Kd |
| --- | --- |
| NIPP1 PP1-binding domain, residues 158-216 (domain or fragment, UniProt Q12972 158-216, looked up) EEETELDNLTEFNTAHNKRISTLTIEEGNLDIQRPKRKRKNSRVTFSEDDEIINPEDVD | 104 nM |
| nuclear inhibitor of PP1 (NIPP1), residues 1-225 (FHA domain and PP1-binding domain) (domain or fragment, UniProt Q12972 1-225, looked up) MAAAANSGSSLPLFDCPTWAGKPPPGLHLDVVKGDKLIEKLIIDEKKYYLFGRNPDLCDFTIDHQSCSRVHAALVYHKHLKRVFLIDLNSTHGTFLGHIRLEPHKPQQIPIDSTVSFGASTRAYTLREKPQTLPSAVKGDEKMGGEDDELKGLLGLPEEETELDNLTEFNTAHNKRISTLTIEEGNLDIQRPKRKRKNSRVTFSEDDEIINPEDVDPSVGRFRNM | 17.8 nM |
| NIPP1 PP1-binding domain, residues 144-225 (domain or fragment, UniProt Q12972 144-225, looked up) GGEDDELKGLLGLPEEETELDNLTEFNTAHNKRISTLTIEEGNLDIQRPKRKRKNSRVTFSEDDEIINPEDVDPSVGRFRNM | 73 nM |
